Measured values taken from the supplement of paper PMC9170038.

Columns and labels:
MS2 coat protein [1] = assay: apparent KD of MS2 coat protein; designed switch direction (-1 OFF switch, 1 ON switch): 1; higher = weaker reporter binding
Outline: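 Designed RNA switches were transcribed on Illumina chips by stalled E. coli RNA polymerase and titrated with SNAP-549-labelled MS2 coat protein from 0.7 or 1.5 nM, doubling to 3 µM. Step length ran from 0.8–1.5 h at the lowest concentration to 10–20 min at the highest. The apparent KD is the median over clusters for each design, from curve-fitted normalised cluster fluorescence.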

MS2 coat protein [2] = assay: apparent KD of MS2 coat protein; higher = weaker reporter binding; settings: Eterna round: R107
Outline: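 Designed RNA switches, transcribed on-chip from Illumina sequencing clusters, were titrated with SNAP-549-labelled MS2 coat protein from 0.7 or 1.5 nM to 3 µM in twofold steps. The solution was 100 mM Tris-HCl pH 7.5, 80 mM KCl, 4 mM MgCl2, with constant ligand or without it. Apparent KD is the median over each design's normalised cluster binding-curve fits.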

[3] = input ligand: microRNA oligo, concentration not stated
[4] = input ligand: theophylline 20 uM
[5] = input ligand: theophylline 2 mM
[6] = input ligand: tryptophan 2.4 mM

Row | Sequence | apparent KD of MS2 coat protein (MS2 coat protein [1]; [3]) | apparent KD of MS2 coat protein (MS2 coat protein [2]; input ligand: arginine 13.2 mM) | apparent KD of MS2 coat protein (MS2 coat protein [2]; input ligand: none) | apparent KD of MS2 coat protein (MS2 coat protein [2]; [4]) | apparent KD of MS2 coat protein (MS2 coat protein [2]; [5]) | apparent KD of MS2 coat protein (MS2 coat protein [2]; [6]) | also measured
1 | AGUCCAGCCUGAGCUGGACAAAAGCAUGUACAUGAGGAUCACCCAUGUCAUGUACAAGCUUUUUGCUCGUCUUAAUA [JL zipper 49] (Eterna round: R96, puzzle: Sensor for hsa-mir-208a) | 16.2 nM |  |  |  |  |  | apparent KD of MS2 coat protein (MS2 coat protein [1]; input ligand: FMN 200 uM): 600 nM; apparent KD of MS2 coat protein (MS2 coat protein [1]; input ligand: none): 471 nM
2 | GUACAGAUCAGAGGAUAUCACGUCGAAUAGACGUGAGAAGGCUGAUCACACAUGAAUAUUAGUACAUGAGGAUCACCCAUGUAC [SSNG1/15-A1] (Eterna round: R96, puzzle: Same State NG 1) | 12.8 nM |  |  |  |  |  | apparent KD of MS2 coat protein (MS2 coat protein [1]; input ligand: FMN 200 uM): 14.5 nM; apparent KD of MS2 coat protein (MS2 coat protein [1]; input ligand: none): 18 nM
3 | AAUUUAAUACAUGAGGAUCACCCAUGUAAAUUAAUUAAGAUCAAGGAUAUCAGCUCGAUUAGAGCUGAGAAGGUGAUCACAUGU [SSNG3/19-A2] (Eterna round: R96, puzzle: Same State NG 3) | 307 nM |  |  |  |  |  | 
4 | UCUUGGUUUUUGCUCGUUUUUUGUGUUGAACAUGAGGAUCACCCAUGUAUUGUACGAUCCGGUUUAGUGAUGGUCCG [JMF 63] (puzzle: Sensor for hsa-mir-208a) |  |  |  |  |  |  | apparent KD of MS2 coat protein (MS2 coat protein [1]; Eterna round: R95, input ligand: FMN 200 uM): 40.8 nM; apparent KD of MS2 coat protein (MS2 coat protein [1]; Eterna round: R95, input ligand: microRNA oligo, concentration not stated): 27.7 nM; apparent KD of MS2 coat protein (MS2 coat protein [1]; Eterna round: R95, input ligand: none): 42.1 nM
5 | CCGAAAGGAGUAGGAUAUGUAGGAUAUGCCUACAUGAGGAUCACCCAUGUUCGCAUGGCAGAAGGACAGAAGGACACGGAAACG [pwkr ssNG2 2FMN + 1F5.12] (Eterna round: R96, puzzle: Same State NG 2) | 113 nM |  |  |  |  |  | apparent KD of MS2 coat protein (MS2 coat protein [1]; input ligand: FMN 200 uM): 101 nM; apparent KD of MS2 coat protein (MS2 coat protein [1]; input ligand: none): 293 nM
6 | UAUAUAUAGGCGGCCGCCACUGAUUUUCAUAUAUAUAUAACAUGAGGAUCACCCAUGUAGAUAUACAGGACCGGGCCUAUAUAUA [aaaA] |  | 17 nM | 16.1 nM | 16.5 nM | 14.7 nM | 13.3 nM | 
7 | GCUAUGGCUAGAAGGAGCGUGAAUUUCAGAAAACAUGAGGAUCACCCAUGUAAGGAUAUGACACAGGUAGGUCGCUAGCCAUAGC [SSAB NP+V+V2 #19] |  | 9.88 nM | 10.8 nM | 10.5 nM | 12.5 nM | 10.8 nM | 
8 | AUGUCAUUGGUGUAGCUGUGAAGUGGCGAUACCAGCGUGGAAACACGCCCUUGGCAGCGCCAAAACAUGAGGAUCACCCAUGUUA [#23 Exclusion-TheophyllineA] |  | 19 nM |  | 56.3 nM |  | 22.9 nM | 
9 | ACAUGAGGAUCACCCAUGUAAGAUGCAGAAGGAGCGGGAAAUAACCCAGGUAGGUCGCUGCGGUUUGGAUUAUUGUGUUCGUGAA [#08 Exclusion - Arginine A] |  | 11.6 nM | 12.1 nM | 18.8 nM | 13.8 nM | 12.5 nM | 
10 | AUGUCGUUGAAUAUAGCGGCUUGGAGUGAUACCAGAAUGAUCUAAUUCCCUUGGCAGCAUUACAUGAGGAUCACCCAUGUUCCAG [SSTheo A #22] |  | 27.8 nM |  | 57.4 nM |  | 55.5 nM | 
11 | GUUAUAGACGGAAGGAGCGCGGCCACAUGAGGAUCACCCAUGUAUUGUGUUGGUAAUAGGUCGCAGGUAGGUCGCCGAUUAAUGA [Same State - Arginine B / A] |  | 35.9 nM | 55.1 nM | 61.7 nM | 47.5 nM | 34 nM | 
12 | ACAUGAGGAUCACCCAUGUGCCGUCUUGAUACCAGACCCGAAGUAGUCCCUUGGCAGCAACUACGUGAGGGUCGCCCAUGUGUAG [5kullin] |  | 16.1 nM | 14.5 nM | 22.2 nM | 16.7 nM | 13.7 nM | 
13 | AAGAUAAGUACUGAUACCAGAGACAUGAGGAUCACCCAUGUCAAAUAAUAAUACCUCAGACUCCCUUGGCAGCAGGAUAAAUGAG [Exclusion Theophylline B GF1] |  | 10.9 nM | 11.7 nM | 19.9 nM | 19.2 nM | 12.1 nM | 
